Target: SMAD3 (UniProt P84022 P84022:1-425)
Test: EMSA; 5 mM MgCl2, 200 mM NaCl, pH 7.6, poly(dI-dC), room temperature; band diminished by unlabeled competitor; probe described as upstream of the predicted site …
Details: tags: full length, Santa Cruz Biotechnology; label: 5'-Cy5
Protocol: Electrophoretic Mobility Shift Assay (EMSA): Cultured A549 cells at 60-70% confluence were treated with 2 ng/mL recombinant human TGFβ₁ (R&D Systems) for 60 minutes. Nuclear proteins were isolated using a standard rapid micropreparation technique described at Andrews N. C. and Faller D. V. Nucleic acids research (1991); 19:2499). The supernatant was reserved and snap frozen in liquid nitrogen as the nuclear protein fraction. Nuclear extracts and recombinant full length SMAD3 protein (Santa Cruz Biotechnology, Santa Cruz, Calif.) were incubated with 5′-end Cyanine-5 labeled probe and/or non-labeled competitor oligonucleotide for 20 minutes at room temperature in a binding buffer consisting of 20% glycerol, 5 mM MgCl₂, 2.5 mM EDTA, 25 mM DTT, 200 mM NaCl, 50 mM Tris HCl pH 7.6, and 0.25 mg/mL poly(dI-dC). The complementary oligonucleotides (5′-[…]-3′ (SEQ ID NO: 3), 5′-[…]-3′ (SEQ ID NO: 4)) were synthesized by Integrated DNA Technologies (Coralville, Iowa), and consisted of a sequence upstream of the predicted SMAD3/let7d binding site (GGCTGAGTA (SEQ ID NO:5)). […] The protein/DNA complexes were run on a 6% native polyacrylamide gel and visualized on a Typhoon imaging and documentation system using Cyanine-5 dye excitation and fluorescence settings.

SMAD3, sequence (P84022 whole entry, one chain of several): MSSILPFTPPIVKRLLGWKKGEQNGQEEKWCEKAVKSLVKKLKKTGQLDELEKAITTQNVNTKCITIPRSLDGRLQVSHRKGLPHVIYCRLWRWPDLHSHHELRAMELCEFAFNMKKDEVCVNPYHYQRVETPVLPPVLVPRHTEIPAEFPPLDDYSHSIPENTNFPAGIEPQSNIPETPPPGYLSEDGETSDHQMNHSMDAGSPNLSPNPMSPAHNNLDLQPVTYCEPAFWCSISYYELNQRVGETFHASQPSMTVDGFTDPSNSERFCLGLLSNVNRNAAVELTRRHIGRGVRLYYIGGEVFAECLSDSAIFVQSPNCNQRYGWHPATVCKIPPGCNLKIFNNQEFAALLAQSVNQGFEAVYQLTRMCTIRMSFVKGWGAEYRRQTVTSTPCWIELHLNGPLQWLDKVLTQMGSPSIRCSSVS

B1: let-7d promoter EMSA probe (dsDNA)
DNA 1: GATAATTAAATGTTAAAAGTCAGC
DNA 2: GCTGACTTTTAACATTTAATTATC
  binding result: binds

— patent publication US20120045395, “MicroRNAs In Idiopathic Pulmonary Fibrosis” (UNIVERSITY OF PITTSBURGH - OF THE COMMONWEALTH SYSTEM OF …, published 2012)
